Measured values from patent US8017326B2, “Methods of modulating cell death based on the Bit-1/AES regulatory pathway” (Sanford-Burnham Medical Research Institute, priority 2002, dated 2011).
Entries after “also recorded” stand apart in the source; their conditions may differ.

Columns and labels:
[1] = system: HEK 293 cells; test: Annexin V-FITC/propidium iodide staining of Bit1-transfected cells; assay type: cell-based, human
Description: (§1) Bit1 activity was analyzed in the human embryonic kidney cell line, HEK 293. […] Furthermore, HEK 293 cells were transfected with a Bcl-2-promoter-luciferase reporter construct together with increasing amounts of Bit1 expression construct; Bcl-2 transcription was measured by quantifying luciferase […] after 24 hours in culture. In agreement with the CHO cell results, transcription from the Bcl-2 promoter was suppressed in the Bit1-transfected HEK 293 cells (see FIG. 1B). […] In particular, the percentages of annexin V-positive cells (lower right quadrants) are about 1.4% in the control and about 4.7% in the Bit1-transfected cells.
Analysis of cell viability and apoptosis was performed as follows. Cell viability was measured by trypan blue exclusion analysis. Apoptosis was confirmed by DNA fragmentation (Oncogene; La Jolla, Calif.) thirty-six hours after transfection. Annexin-V staining (BD Biosciences Clontech; Palo Alto, Calif.) was performed according to the manufacturer's protocol.

[2] = system: Bcl-2 promoter; test: Bcl-2-promoter-luciferase reporter assay in HEK 293 cells; assay type: cell-based, human; settings: luciferase after 24 hours
Description: as §1

[3] = system: HOP92 cells; test: Percentage of GFP-positive detached cells after transfection; assay type: cell-based; settings: 72 hours after transfection; cells express only negligible amounts of AES
Description: To determine if Bit1 and AES are both required for apoptosis induction, HEK 293T, HOP92, and CHO cells were transfected with a GFP (vector), GFP-Bit1, or GFP-AES fusion protein constructs, as indicated in FIG. 3E. The cells were examined 48 hours (HEK 293T and CHO) or 72 hours (HOP92) after transfection, and the percentage of GFP-positive detached cells was measured.
Because the HEK 293T cells lack detectable Bit1 activity, it seemed possible that AES required endogenous Bit1 for the pro-apoptotic activity. An NIH data bank identified HOP92 as a cell line that expresses only negligible amounts of AES. […] CHO cells (FIG. 3E) and HeLa cells, which express both Bit1 and AES, underwent apoptosis upon transfection with either protein.

[4] = system: Heat Shock 70 kD protein 1A; test: Northern blot of ecdysone-induced Bit1 or AES cell lines; assay type: cell-based, human; settings: ecdysone-inducible ECR-293 cell line expressing Bit1 or AES
Description: (§2) To determine whether the Bit1/AES pathway can regulate the transcription of genes other than Bcl-2, two stable cell lines were established expressing either-Bit1 or AES under control of an ecdysone-inducible promoter. To detect genes regulated by Bit1 or AES, probes were prepared from the ecdysone-induced cell lines and used to screen microarrays representing 19,000 human cDNAs. […] Down-regulation of HSP-70 and thymosin 4 in cells induced to express Bit1 or AES was confirmed by Northern blot analysis (see FIG. 7).
(§3) Northern blot analysis was performed as follows. Total RNA (10 μg) was electrophoresed on a 1% agarose-formaldehyde gel and transferred to nitrocellulose filters. The filters were hybridized using the same RNA probes as in the microarray experiments in Rapid-hyb buffer and washed according to the manufacturer's instructions (Amersham-Pharmacia).

[5] = system: Thymosin β-4; test: as above; assay type: cell-based, human; settings: ecdysone-inducible ECR-293 cell line expressing Bit1 or AES
Description: as §2, §3

[6] = system: 19,000 human cDNAs; test: cDNA microarray analysis of ecdysone-induced Bit1 or AES cell lines; assay type: cell-based
Description: as §2
cDNA microarray analysis was performed as follows. Total RNA was purified 48 hours after treatment with 10 μM ponasterone A (Invitrogen; San Diego, Calif.) from the ecdysone inducible cell line ECR-293-Bit1 or ECR-293-AES according to the manufacturer's instructions (Qiagen; Valencia, Calif.). cDNA probes were generated and hybridized with a microarray containing 19,000 human cDNAs from Microarray Centre at University Health Network, Ontario Cancer institute. cDNAs were labeled with fluorescent dyes (Cy3 or Cy5) using reverse transcription. Arrays were processed and hybridized essentially as described in Iyer et al., Science 283:83-87 (1999). After hybridization, arrays were scanned to measure fluorescence using a ScanArray 4000 scanner (Perkin Elmer; Meriden, Conn.). Raw data files generated by scanner software were imported into ImaGene and Gene Spring for analysis. Experiments were performed in duplicate using color reversals.

[7] = system: HEK 293T cells; test: Anoikis of attached or detached (poly-HEMA) transfected cells; assay type: cell-based, human
Description: The role of Bit1 in the tendency of detached cells to undergo apoptosis (anoikis in the strictest sense) was then examined. HEK 293T cells were transfected with C-terminally myc-tagged (mitochondrial) Bit1 or with empty vector, and the cells were cultured either on tissue-culture plates (attached) or on poly-HEMA (detached) for 48 hours. The number of attached cells (10^6) was the same whether the cells were transfected with Bit1 or vector (assigned as 100% in FIG. 8H).
As is shown in FIG. 8H, Bit1 and control transfected cells had the same level of spontaneous apoptosis when grown attached to a culture dish. In striking contrast, detachment induced a higher level of cell death in the Bit1-transfected cells than in the control cells. Given that the transfection efficiency was about 50-70% in the 293T cells, the nearly 4-fold higher apoptosis level of the Bit1-transfected cells translates into more than 5-fold difference in anoikis sensitivity.

[8] = biological target: T1, AES (Homo sapiens, UniProt Q08117); test: Yeast two-hybrid analysis; assay type: binding; settings: yeast co-transformed with vectors encoding both Bit1 and AES
T1 construct: expressed in transfected cells; host or cells: yeast strain AH109
T1 sequence (Q08117 1-197): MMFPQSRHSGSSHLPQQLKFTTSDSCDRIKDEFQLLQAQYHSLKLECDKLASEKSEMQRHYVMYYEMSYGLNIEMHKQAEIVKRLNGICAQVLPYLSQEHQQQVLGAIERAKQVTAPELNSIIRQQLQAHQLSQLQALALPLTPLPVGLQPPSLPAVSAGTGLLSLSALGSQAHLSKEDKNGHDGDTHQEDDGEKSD
Description: To explore the mechanism whereby Bit1 induces cell death, a yeast-two-hybrid screening assay was performed to search for binding partners for the Bit1 protein. Full-length Bit1 cDNA was fused to the Gal4 DNA-binding domain in the pGBKT7 vector and used as bait; a human fetal brain cDNA expression library fused to the Gal4 transcriptional activation domain was screened in cells expressing the Bit1/GAL4 DNA-binding domain fusion. Approximately one million transformants from the cDNA library were screened, and about 100 clones positive for both nutritional selection and α-galactosidase activity were obtained.
The ability of AES to interact with Bit1 was confirmed in mammalian cells.
Yeast two-hybrid screening was performed as follows. Full length CGI-147 was cloned in-frame with the Gal4 DNA binding domain in vector pGBKT7 and used to screen a yeast two-hybrid library derived from human fetal brain (Clontech). Yeast strain AH109 was co-transformed with PGBKT7-Bit1, pACT-2-AES or both, and growth selected in SD medium -ADE/-His/-Leu/-Trp and assayed for α-galactosidase activity according to the manufacturer's instructions (Clontech).

B1: Bit1: human Bit1 polypeptide of 179 residues (SEQ ID NO:2), pro-apoptotic, expressed in cells by transfection (protein, listed as Homo sapiens)
chain: MPSKSLVMEYLAHPSTLGLAVGVACGMCLGWSLRVCFGMLPKSKTSKTHTDTESEASILGDSGEYKMILVVRNDLKMGKGKVAAQCSHAAVSAYKQIQRRNPEMLKQWEYCGQPKVVVKAPDEETLIALLAHAKMLGLTVSLIQDAGRTQIAPGSQTVLGIGPGPADLIDKVTGHLKLY
In the case of B1, the “Late stage apoptosis, both annexin V and propidium iodide uptake (upper right quadrants)” value ([1]; Bit1-transfected HEK 293 cells versus control) is reported as 18%, the “percentages of annexin V-positive cells (lower right quadrants)” value ([1]; Bit1-transfected HEK 293 cells, control about 1.4%) is reported as “about 4.7%” and the “transcription from the Bcl-2 promoter” value [2] is reported as “suppressed”. For the same molecule, the “apoptosis induction in HOP92 cells” value [3] was “resistant”, the “Northern result, suppression of Heat Shock 70 kD protein 1A” value [4] was 3 fold and the “Northern result, suppression of Thymosin β-4” value [5] was 5 fold. The Bcl-2 expression ([6]; Bit1 and AES stable cell lines) was “not measurably altered”, the “Microarray result: gene induced” value ([6]; at least a two-fold induction, value is the gene) was “Atrophin-1 interacting protein 1; also recorded: Mannosyl (β-1,4)-glycoprotein; also recorded: insulin-like growth factor-binding; also recorded: Tissue factor pathway inhibitor 2” and the “Microarray result: gene suppressed” value ([6]; at least a two-fold suppression, value is the gene) was “Heat Shock 70 kD protein 1A; also recorded: Thymosin β-4; also recorded: Actin-binding LIM protein; also recorded: sialytransferase”. The “reduction of the number of surviving cells in detached cultures” value ([7]; C-terminally myc-tagged Bit1, poly-HEMA, 48 hours, 8% in the vector transfection) was 30%, the “apoptosis level of Bit1-transfected cells versus control cells, detached” value ([7]; HEK 293T cells, detached) was ~4 fold and the “difference in anoikis sensitivity” value ([7]; corrected for transfection efficiency of about 50-70%) was “more than 5 fold”. For the same molecule, the “interaction with AES, growth of co-transformed yeast” value [8] was “yeast grew”.
